Source: US20110150870A1

Legend:
human Fc-NKG2D (human) [1] = target: human Fc-NKG2D (human) (UniProt P26718); assay: SPR (BIAcore 2000), human Fc-NKG2D immobilized on chip; bivalent IgG
human Fc-NKG2D (human) [2] = target: human Fc-NKG2D (human) (UniProt P26718); assay: SPR (BIAcore 2000), human Fc-NKG2D immobilized on chip; bivalent binding (virtual affinity, avidity)
[3] = target: human NKG2D, cell surface (human) (UniProt P26718); assay: cell-based or functional assay
human NKG2D, cell surface (human), sequence (P26718 whole entry): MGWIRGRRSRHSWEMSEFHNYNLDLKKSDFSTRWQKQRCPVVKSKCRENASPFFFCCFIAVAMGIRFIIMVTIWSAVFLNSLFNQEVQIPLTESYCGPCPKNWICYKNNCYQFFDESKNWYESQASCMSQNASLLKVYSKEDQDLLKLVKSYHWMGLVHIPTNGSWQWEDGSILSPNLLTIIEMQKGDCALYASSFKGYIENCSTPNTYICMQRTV

human Fc-NKG2D (human), sequence (P26718 78-216 limits assumed): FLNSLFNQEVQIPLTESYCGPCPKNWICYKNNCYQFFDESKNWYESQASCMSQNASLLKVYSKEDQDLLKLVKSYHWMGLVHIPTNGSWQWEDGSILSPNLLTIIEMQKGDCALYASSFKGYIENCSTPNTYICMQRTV

Substance: mouse anti-human NKG2D mAb 149810 (antibody)
- koff (human Fc-NKG2D (human) [1]): 5.1e-05 s⁻¹
- kon (human Fc-NKG2D (human) [1]): 140000 M⁻¹ s⁻¹
- Kd (human Fc-NKG2D (human) [2]): 0.36 nM
- percentage of degranulated NK cells (CD56+ CD107a/CD107b+) among total NK cells (CD56+), immobilized antibody, Donor 1 [3]: 13.6%
- percentage of degranulated NK cells (CD56+ CD107a/CD107b+) among total NK cells (CD56+), immobilized antibody, Donor 2 [3]: 16.3%
- percentage of degranulated NK cells (CD56+ CD107a/CD107b+) among total NK cells (CD56+), immobilized antibody, Donor 3 [3]: 24.3%
- percentage of degranulated NK cells (CD56+ CD107a/CD107b+) among total NK cells (CD56+), immobilized antibody, Donor 4 [3]: 8.4%
